Laboratory results reported in US20110038881A1, “PROGNOSTIC ASSAY FOR DETERMINING T CELL RESPONSE TO HLA ANTIGENS AND USE THEREOF IN FIELD OF TISSUE TRANSPLANTATION” (priority 2007, published 2011).

What follows are binders tested against HLA-DRB1*0401 (human) (assay: competition binding). Conditions: modification not given.
An IC50 of 28 µM was found for RRYLENGKETLQRTD [p36] in this work. An IC50 of 31 µM was found for IAVGYVDDTQFVRFD [p5] in this work. An IC50 of 70.4 µM was found for TELVETRPAGDGTFQ [p44] in this work. An IC50 of 0.118 µM was found for HKWEAAHVAEQLRAY [p30] in this work. An IC50 of over 100 µM was found for VEWLRRYLENGKETL [p35*] in this work. An IC50 of over 100 µM was found for EDLRSWTAADMAAQT [p27] in this work. An IC50 of 3.87 µM was found for YAYDGKDYIALKEDL [p24] in this work. An IC50 of over 100 µM was found for TCVEWLRRYLENGKE [p34*] in this work. An IC50 of over 100 µM was found for IPIVGIIAGLVLFGA [p53*] in this work. An IC50 of 1.53 µM was found for RSWTAADMAAQTTKH [p28] in this work. An IC50 of 0.326 µM was found for FQKWAAVVVPSGQEQR [p46*] in this work. An IC50 of over 100 µM was found for ADMAAQTTKHKWEAA [p29] in this work. An IC50 of 9.17 µM was found for RAYLEGTCVEWLRRY [p33] in this work.

Each binder was assayed against HLA-DRB1*0101 (human) (assay: competition binding). Conditions: modification not given.
An IC50 of 0.704 µM was found for RRYLENGKETLQRTD [p36] in this work. An IC50 of 2.77 µM was found for IAVGYVDDTQFVRFD [p5] in this work. An IC50 of 0.002 µM was found for MRYFFTSVSRPGRGE [p2*] in this work. An IC50 of 4.47 µM was found for TELVETRPAGDGTFQ [p44] in this work. An IC50 of 0.029 µM was found for HKWEAAHVAEQLRAY [p30] in this work. An IC50 of 0.598 µM was found for VEWLRRYLENGKETL [p35*] in this work. An IC50 of over 100 µM was found for EDLRSWTAADMAAQT [p27] in this work. An IC50 of 0.035 µM was found for YAYDGKDYIALKEDL [p24] in this work. An IC50 of over 100 µM was found for TCVEWLRRYLENGKE [p34*] in this work. An IC50 of 0.026 µM was found for IPIVGIIAGLVLFGA [p53*] in this work. An IC50 of 0.067 µM was found for RSWTAADMAAQTTKH [p28] in this work. An IC50 of 0.218 µM was found for FQKWAAVVVPSGQEQR [p46*] in this work. An IC50 of 40 µM was found for ADMAAQTTKHKWEAA [p29] in this work. An IC50 of 0.025 µM was found for RAYLEGTCVEWLRRY [p33] in this work.

The binders below were run against HLA-DRB1*1301 (human) (assay: competition binding). Conditions: modification not given.
An IC50 of 11.6 µM was found for RRYLENGKETLQRTD [p36] in this work. An IC50 of over 100 µM was found for IAVGYVDDTQFVRFD [p5] in this work. An IC50 of 0.399 µM was found for MRYFFTSVSRPGRGE [p2*] in this work. An IC50 of over 100 µM was found for TELVETRPAGDGTFQ [p44] in this work. An IC50 of over 100 µM was found for HKWEAAHVAEQLRAY [p30] in this work. An IC50 of 8.06 µM was found for VEWLRRYLENGKETL [p35*] in this work. An IC50 of over 100 µM was found for EDLRSWTAADMAAQT [p27] in this work. An IC50 of over 100 µM was found for YAYDGKDYIALKEDL [p24] in this work. An IC50 of 5 µM was found for TCVEWLRRYLENGKE [p34*] in this work. An IC50 of 1.37 µM was found for IPIVGIIAGLVLFGA [p53*] in this work. An IC50 of over 100 µM was found for RSWTAADMAAQTTKH [p28] in this work. An IC50 of over 100 µM was found for FQKWAAVVVPSGQEQR [p46*] in this work. An IC50 of 3.84 µM was found for ADMAAQTTKHKWEAA [p29] in this work. An IC50 of 13.4 µM was found for RAYLEGTCVEWLRRY [p33] in this work.

The binders below were run against HLA-DRB4*0101 (human) (assay: competition binding). Conditions: modification not given.
An IC50 of over 100 µM was found for IAVGYVDDTQFVRFD [p5] in this work. An IC50 of over 100 µM was found for MRYFFTSVSRPGRGE [p2*] in this work. An IC50 of over 100 µM was found for YAYDGKDYIALKEDL [p24] in this work. An IC50 of 12.6 µM was found for RAYLEGTCVEWLRRY [p33] in this work.

These binders were tested against HLA-DRB1*0701 (human) (assay: competition binding). Conditions: modification not given.
An IC50 of over 100 µM was found for RRYLENGKETLQRTD [p36] in this work. An IC50 of 3.1 µM was found for IAVGYVDDTQFVRFD [p5] in this work. An IC50 of 0.045 µM was found for MRYFFTSVSRPGRGE [p2*] in this work. An IC50 of 2.16 µM was found for TELVETRPAGDGTFQ [p44] in this work. An IC50 of 0.401 µM was found for HKWEAAHVAEQLRAY [p30] in this work. An IC50 of over 100 µM was found for VEWLRRYLENGKETL [p35*] in this work. An IC50 of over 100 µM was found for EDLRSWTAADMAAQT [p27] in this work. An IC50 of 4.47 µM was found for YAYDGKDYIALKEDL [p24] in this work. An IC50 of over 100 µM was found for TCVEWLRRYLENGKE [p34*] in this work. An IC50 of 0.179 µM was found for IPIVGIIAGLVLFGA [p53*] in this work. An IC50 of 12.8 µM was found for RSWTAADMAAQTTKH [p28] in this work. An IC50 of 0.7 µM was found for FQKWAAVVVPSGQEQR [p46*] in this work. An IC50 of over 100 µM was found for ADMAAQTTKHKWEAA [p29] in this work. An IC50 of 0.637 µM was found for RAYLEGTCVEWLRRY [p33] in this work.

These binders were tested against HLA-DRB1*1101 (human) (assay: competition binding). Conditions: modification not given.
An IC50 of 0.738 µM was found for RRYLENGKETLQRTD [p36] in this work. An IC50 of 9.22 µM was found for IAVGYVDDTQFVRFD [p5] in this work. An IC50 of 0.003 µM was found for MRYFFTSVSRPGRGE [p2*] in this work. An IC50 of 8.75 µM was found for TELVETRPAGDGTFQ [p44] in this work. An IC50 of 0.379 µM was found for HKWEAAHVAEQLRAY [p30] in this work. An IC50 of 0.251 µM was found for VEWLRRYLENGKETL [p35*] in this work. An IC50 of over 100 µM was found for EDLRSWTAADMAAQT [p27] in this work. An IC50 of 0.184 µM was found for YAYDGKDYIALKEDL [p24] in this work. An IC50 of 0.245 µM was found for TCVEWLRRYLENGKE [p34*] in this work. An IC50 of over 100 µM was found for IPIVGIIAGLVLFGA [p53*] in this work. An IC50 of 10.5 µM was found for RSWTAADMAAQTTKH [p28] in this work. An IC50 of 0.626 µM was found for FQKWAAVVVPSGQEQR [p46*] in this work. An IC50 of over 100 µM was found for ADMAAQTTKHKWEAA [p29] in this work. An IC50 of 0.872 µM was found for RAYLEGTCVEWLRRY [p33] in this work.

Each binder was assayed against HLA-DRB1*0301 (human) (assay: competition binding). Conditions: modification not given.
An IC50 of over 100 µM was found for RRYLENGKETLQRTD [p36] in this work. An IC50 of 0.316 µM was found for IAVGYVDDTQFVRFD [p5] in this work. An IC50 of 2.84 µM was found for MRYFFTSVSRPGRGE [p2*] in this work. An IC50 of over 100 µM was found for TELVETRPAGDGTFQ [p44] in this work. An IC50 of 16.5 µM was found for HKWEAAHVAEQLRAY [p30] in this work. An IC50 of over 100 µM was found for VEWLRRYLENGKETL [p35*] in this work. An IC50 of over 100 µM was found for EDLRSWTAADMAAQT [p27] in this work. An IC50 of over 100 µM was found for YAYDGKDYIALKEDL [p24] in this work. An IC50 of over 100 µM was found for TCVEWLRRYLENGKE [p34*] in this work. An IC50 of over 100 µM was found for RSWTAADMAAQTTKH [p28] in this work. An IC50 of 7.35 µM was found for FQKWAAVVVPSGQEQR [p46*] in this work. An IC50 of over 100 µM was found for ADMAAQTTKHKWEAA [p29] in this work. An IC50 of 34.9 µM was found for RAYLEGTCVEWLRRY [p33] in this work.

Each binder was assayed against HLA-DRB3*0101 (human) (assay: competition binding). Conditions: modification not given.
An IC50 of 4.85 µM was found for RRYLENGKETLQRTD [p36] in this work. An IC50 of over 100 µM was found for MRYFFTSVSRPGRGE [p2*] in this work. An IC50 of 0.806 µM was found for HKWEAAHVAEQLRAY [p30] in this work. An IC50 of 1.88 µM was found for EDLRSWTAADMAAQT [p27] in this work. An IC50 of over 100 µM was found for YAYDGKDYIALKEDL [p24] in this work. An IC50 of 58.1 µM was found for TCVEWLRRYLENGKE [p34*] in this work. An IC50 of 1 µM was found for RSWTAADMAAQTTKH [p28] in this work. An IC50 of 1.73 µM was found for FQKWAAVVVPSGQEQR [p46*] in this work. An IC50 of 0.033 µM was found for ADMAAQTTKHKWEAA [p29] in this work. An IC50 of 8.94 µM was found for RAYLEGTCVEWLRRY [p33] in this work.

The binders below were run against HLA-DRB1*1501 (human) (assay: competition binding). Conditions: modification not given.
An IC50 of 69 µM was found for RRYLENGKETLQRTD [p36] in this work. An IC50 of 2.97 µM was found for IAVGYVDDTQFVRFD [p5] in this work. An IC50 of 1.17 µM was found for MRYFFTSVSRPGRGE [p2*] in this work. An IC50 of over 100 µM was found for TELVETRPAGDGTFQ [p44] in this work. An IC50 of 0.938 µM was found for HKWEAAHVAEQLRAY [p30] in this work. An IC50 of 0.245 µM was found for VEWLRRYLENGKETL [p35*] in this work. An IC50 of 0.648 µM was found for EDLRSWTAADMAAQT [p27] in this work. An IC50 of over 100 µM was found for YAYDGKDYIALKEDL [p24] in this work. An IC50 of 22.2 µM was found for TCVEWLRRYLENGKE [p34*] in this work. An IC50 of 0.283 µM was found for IPIVGIIAGLVLFGA [p53*] in this work. An IC50 of over 100 µM was found for RSWTAADMAAQTTKH [p28] in this work. An IC50 of over 100 µM was found for FQKWAAVVVPSGQEQR [p46*] in this work. An IC50 of over 100 µM was found for ADMAAQTTKHKWEAA [p29] in this work. An IC50 of 4.74 µM was found for RAYLEGTCVEWLRRY [p33] in this work.

These binders were tested against HLA-DRB5*0101 (human) (assay: competition binding). Conditions: modification not given.
An IC50 of 0.798 µM was found for IAVGYVDDTQFVRFD [p5] in this work. An IC50 of 0.004 µM was found for MRYFFTSVSRPGRGE [p2*] in this work. An IC50 of 40.5 µM was found for RSWTAADMAAQTTKH [p28] in this work.
